Molecular target: CDK4 (UniProt P11802)
Sequence (P11802 2-303): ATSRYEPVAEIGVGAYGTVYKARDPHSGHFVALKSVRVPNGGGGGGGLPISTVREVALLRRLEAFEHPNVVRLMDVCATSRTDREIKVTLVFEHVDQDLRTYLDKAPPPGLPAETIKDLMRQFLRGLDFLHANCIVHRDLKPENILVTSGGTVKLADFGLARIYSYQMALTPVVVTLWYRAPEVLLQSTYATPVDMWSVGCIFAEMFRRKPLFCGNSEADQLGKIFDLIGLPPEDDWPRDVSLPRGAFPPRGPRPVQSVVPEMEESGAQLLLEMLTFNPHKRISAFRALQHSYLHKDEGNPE

JNK
phosphorylation of CDK4 at Thr-172 (immunoblot): JNK phosphorylated T172 of CDK4 2 hours after serum stimulation
